Assay results from patent US20220233607A1 (UNIVERSIT DE TOURS, published 2022).

Target: T1, DEC205 on MutuDC 1950 cells (murine dendritic cell line, DEC205+) (murine, UniProt Q60767 28-1723)
T1 construct: whole, on cells; also called CD205; dendritic cells
Assay: flow cytometry, MutuDC 1950 cells with parasites at MOI 2 on ice, anti-gp23 mAb

B1: scFv anti-DEC205 fused to SAG1 (DC2 SAG1) protein, membrane anchored SAG1 ScFv DEC 205 including a HA tag, on the surface of T. gondii RH-DC2-SAG1 tachyzoites (scFv)
scFv: YPYDVPDYAQVQLQESGGGLVQPGGSLRLSCAASGFTFNDFYMNWIRQPPGQAPEWLGVIRNKGNGYTTEVNTSVKGRFTISRDNTQNILYLQMNSLRAEDTAIYYCARGGPYYYSGDDAPYWGQGVMVTVSSGGGGSGGGGSGGGGSDIQMTQSPSSLSASVGDRVTITCRASQNIKGWLAWYQQKSGNAPQLLIYKASSLQSGVPSRFSGSGSGTDYIFTISNLQPEDIATYYCQHYQSFPWTFGGGTKLELKGGGASPLVANQVVTCPDKKSTAAVILTPTENHFTLKCPKTALTEPPTLAYSPNRQICPAGTTSSCTSKAVTLSSLIPEAEDSWWTGDSASLDTAGIKLTVPIEKFPVTTQTFVVGCIKGDDAQSCMVTVTVQARASSVVNNVARCSYGADSTLGPVKLSAEGPTTMTLVCGKDGVKVPQDNNQYCSGTTLTGCNEKSFKDILPKLTENPWQGNASSDKGATLTIKKEAFPAESKSVIIGCTGGSPEKHHCTVKLEFA
notes: also called RH-DEC205
- multiplication factor of the percentage of T. gondii binding to mutuDC cells (against RH strain): ≥ 2.5 fold

B2: scFv anti-DEC205 (DC2) protein, membrane anchored ScFv DEC 205 including a HA tag, on the surface of T. gondii RH-DC2 tachyzoites (scFv)
scFv: YPYDVPDYAQVQLQESGGGLVQPGGSLRLSCAASGFTFNDFYMNWIRQPPGQAPEWLGVIRNKGNGYTTEVNTSVKGRFTISRDNTQNILYLQMNSLRAEDTAIYYCARGGPYYYSGDDAPYWGQGVMVTVSSGGGGSGGGGSGGGGSDIQMTQSPSSLSASVGDRVTITCRASQNIKGWLAWYQQKSGNAPQLLIYKASSLQSGVPSRFSGSGSGTDYIFTISNLQPEDIATYYCQHYQSFPWTFGGGTKLELKGGGAS
notes: also called SS SAG1-HA-ScFv-linker-GPI; RH-DEC205
- multiplication factor of the percentage of T. gondii binding to mutuDC cells (against RH strain): ≥ 2.5 fold
